In PMC10203562 one finds Kd data, which are given here for one substance.

Targets include bococizumab variant SELW; bococizumab variant EDGM; bococizumab variant PENW; bococizumab variant PEGQ; bococizumab variant PELW; bococizumab variant AEGQ; bococizumab variant AEPA; bococizumab variant PFGQ; bococizumab; bococizumab variant PERQ; bococizumab variant SEGQ.
What all share (assay): SPR; Biacore 8K+; anti-human IgG (Fc) amine-coupled to CM5 captures the antibody (10-25 RU); PCSK9 50 nM to 12 pM flowed over, 240 s association, 1800 s dissociation; Langmuir 1:1 global fit; duplicates
For orientation: SPR reads the build-up and loss of mass on a sensor chip optically.

The Kd is the constant that tells how readily two partners part at equilibrium. Read a high Kd as lower affinity. For the substance “proprotein convertase substilisin/kexin type 9 (PCSK9) (from UniProt Q8NBP7 153-692) (natural protein)”, the Kd with bococizumab variant SELW came out at 0.27 nM; with bococizumab variant EDGM, 0.66 nM; with bococizumab variant PENW it was 0.24 nM; in the experiment with bococizumab variant PEGQ, 0.2 nM; with bococizumab variant PELW, 0.19 nM; in the experiment with bococizumab variant AEGQ, 0.19 nM. The Kd turned out to be 0.21 nM with bococizumab variant AEPA; 0.25 nM with bococizumab variant PFGQ; 0.25 nM with bococizumab; 0.25 nM with bococizumab variant PERQ; 0.35 nM with bococizumab variant SEGQ.
